Reference: PMC11883000, “Structure-function relationship of ASH1L and histone H3K36 and H3K4 methylation” (Nature Communications, 2025)
Ends that are not written are not given here. Me2 = dimethylation (dimethyl-lysine)

What was measured:
[1] = target: T1, ASH1L plant homeodomain (PHD) finger, wild type (aa 2579-2629) (human, UniProt Q9NR48 2579-2629); experiment: NMR titration; 1H,15N HSQC chemical shift perturbation; unlabelled ligand (histone peptide or ASH1LSET) added to 0.1-0.2 mM 15N-labelled protein; 298 K; 25 mM Tris pH 7.5, 150 mM NaCl, 5 mM DTT; settings: both partners purified
T1 construct: ASH1L, human, PHD finger, aa 2579-2629; 15N-labelled for NMR; also called ASH1LPHD; ASH1L PHD; source: E. coli BL21 or Rosetta2 (DE3) pLysS, purified (glutathione agarose, SEC)

[2] = target: T2, ASH1L tandem bromodomain-PHD finger (aa 2436-2638) (human, UniProt Q9NR48 2436-2638); experiment: NMR solution structure; 0.5 mM ASH1L_(BD-PHD) with H3K4me2 peptide (aa 1-15); 298 K; 200 mM sodium phosphate pH 6.3, 5 mM DTT; settings: both partners purified
T2 construct: ASH1L, human, bromodomain and PHD finger, aa 2436-2638 (NMR structure sample); 13C/15N-labelled and 75% deuterated; The protein expression section lists ASH1L_(BD-PHD) as aa 2430-2629 (GST fusion, E. coli); the NMR structure section gives aa 2436-2638; also called ASH1L_(BD-PHD)

## ARTKQTARKSTG (peptide, UniProt P68431 2-13, looked up, histone H3, residues 1-12) [histone H3K4me0 (unmodified) peptide (aa 1-12 of H3)]
[1]
  Kd: 1900 µM

## ARTK(Me2)QTARKSTGGKA (peptide, UniProt P68431 2-16, looked up, histone H3, residues 1-15) [histone H3K4me2 peptide (aa 1-15 of H3)]
[2]
  binding result: binds

## ARTK(Me)QTARKSTG (peptide, UniProt P68431 2-13, looked up, histone H3, residues 1-12) [histone H3K4me1 peptide (aa 1-12 of H3)]
[1]
  Kd: 119 µM
